Reference: article PMC10681739, “High-throughput data and modeling reveal insights into the mechanisms of cooperative DNA-binding by transcription factor proteins”

Target: RUNX1 (Homo sapiens, UniProt Q01196)
Experiment: gcPBM; 2 nM RUNX1
Details: tags: N-terminal GST (pDEST15), kept (PMC6008103); label: surface-attached array probe

RUNX1, sequence (Q01196 whole entry): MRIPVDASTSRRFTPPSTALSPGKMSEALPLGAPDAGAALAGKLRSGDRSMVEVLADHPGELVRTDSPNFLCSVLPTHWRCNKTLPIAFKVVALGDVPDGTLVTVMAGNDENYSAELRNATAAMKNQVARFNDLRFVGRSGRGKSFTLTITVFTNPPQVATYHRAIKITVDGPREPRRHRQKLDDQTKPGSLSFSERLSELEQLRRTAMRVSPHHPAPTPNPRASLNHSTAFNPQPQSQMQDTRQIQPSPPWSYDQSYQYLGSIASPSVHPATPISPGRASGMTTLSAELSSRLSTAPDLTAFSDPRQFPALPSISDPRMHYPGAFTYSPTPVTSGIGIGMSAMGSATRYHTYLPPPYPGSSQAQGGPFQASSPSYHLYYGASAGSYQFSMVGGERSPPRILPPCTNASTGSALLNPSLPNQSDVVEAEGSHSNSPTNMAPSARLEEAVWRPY

B1: Table S3 C row 159 (dsDNA)
DNA 1: GTAAATACACTCATGTTTCCGCTCTCAGCCGTCAGT
DNA 2: ACTGACGGCTGAGAGCGGAAACATGAGTGTATTTAC
binding signal: 801 PBM fluorescence, median of replicate spots

B2: Table S3 C row 169 (dsDNA)
DNA 1: CGCGGGCCCGGCCAGCGGAAGCCCCTGCGCCCGCGC
DNA 2: GCGCGGGCGCAGGGGCTTCCGCTGGCCGGGCCCGCG
binding signal: 779 PBM fluorescence, median of replicate spots

B3: Table S3 C row 28 (dsDNA)
DNA 1: GTTCCTAGTCCGCTCCGGAAATGCAACTGCGTACGG
DNA 2: CCGTACGCAGTTGCATTTCCGGAGCGGACTAGGAAC
binding signal: 793 PBM fluorescence, median of replicate spots

B4: Table S3 C row 148 (dsDNA)
DNA 1: GGCTGCCCGTACTCCCGGAAGCCGAATCCCGGCTGG
DNA 2: CCAGCCGGGATTCGGCTTCCGGGAGTACGGGCAGCC
binding signal: 775 PBM fluorescence, median of replicate spots

B5: Table S3 C row 4 (dsDNA)
DNA 1: CTCTCAACCCAGCCGCTTCCTGGTTGTTCGTCGCAA
DNA 2: TTGCGACGAACAACCAGGAAGCGGCTGGGTTGAGAG
binding signal: 782 PBM fluorescence, median of replicate spots

B6: Table S3 C row 84 (dsDNA)
DNA 1: GCTTCTGGGAGAAGCCGGAAGAGACCTGACCCTGAA
DNA 2: TTCAGGGTCAGGTCTCTTCCGGCTTCTCCCAGAAGC
binding signal: 782 PBM fluorescence, median of replicate spots

B7: Table S3 C row 59 (dsDNA)
DNA 1: TCTTACGGGCGGGGCCGGAAGAGGGAGTCGCGCTGC
DNA 2: GCAGCGCGACTCCCTCTTCCGGCCCCGCCCGTAAGA
binding signal: 793 PBM fluorescence, median of replicate spots

B8: Table S3 C row 45 (dsDNA)
DNA 1: CCGCTGGGGCAGGAGTTTCCGGCGGACTCGGCTAGG
DNA 2: CCTAGCCGAGTCCGCCGGAAACTCCTGCCCCAGCGG
binding signal: 802 PBM fluorescence, median of replicate spots

B9: Table S3 C row 38 (dsDNA)
DNA 1: AGTGAAACATCAGAGCTTCCTGTTACATCACTCTGA
DNA 2: TCAGAGTGATGTAACAGGAAGCTCTGATGTTTCACT
binding signal: 789 PBM fluorescence, median of replicate spots

B10: Table S3 C row 78 (dsDNA)
DNA 1: ATTCCAATGGCAGGCAGGAAATCTTGTAGTAGGTGA
DNA 2: TCACCTACTACAAGATTTCCTGCCTGCCATTGGAAT
binding signal: 802 PBM fluorescence, median of replicate spots

B11: Table S3 C row 66 (dsDNA)
DNA 1: CCAGGACAGCACCTATTTCCTGCTGGTGTAACAGAG
DNA 2: CTCTGTTACACCAGCAGGAAATAGGTGCTGTCCTGG
binding signal: 778 PBM fluorescence, median of replicate spots

B12: Table S3 C row 112 (dsDNA)
DNA 1: ACGTTGCCTCACTGCAGGAAGTGACCCAGGCCTTGC
DNA 2: GCAAGGCCTGGGTCACTTCCTGCAGTGAGGCAACGT
binding signal: 771 PBM fluorescence, median of replicate spots

B13: Table S3 C row 111 (dsDNA)
DNA 1: GGATCCAGGACACTCCGGAAGACATCGTGCTGGAAG
DNA 2: CTTCCAGCACGATGTCTTCCGGAGTGTCCTGGATCC
binding signal: 774 PBM fluorescence, median of replicate spots

B14: Table S3 C row 91 (dsDNA)
DNA 1: CACATACTACTACAACTTCCGGCAGGCTCCGCGCCC
DNA 2: GGGCGCGGAGCCTGCCGGAAGTTGTAGTAGTATGTG
binding signal: 795 PBM fluorescence, median of replicate spots

B15: Table S3 C row 131 (dsDNA)
DNA 1: AGTTGGTAGCGCCAACGGAAGCCCATGCCAAACTTG
DNA 2: CAAGTTTGGCATGGGCTTCCGTTGGCGCTACCAACT
binding signal: 778 PBM fluorescence, median of replicate spots

B16: Table S3 C row 97 (dsDNA)
DNA 1: CACCTGCTACTCAAAGTTCCGCCTCTCTTCAGCGAG
DNA 2: CTCGCTGAAGAGAGGCGGAACTTTGAGTAGCAGGTG
binding signal: 779 PBM fluorescence, median of replicate spots

B17: Table S3 C row 152 (dsDNA)
DNA 1: TTTCCCCGACCCCGCCGGAAGACCAGGCCGGCGCGG
DNA 2: CCGCGCCGGCCTGGTCTTCCGGCGGGGTCGGGGAAA
binding signal: 787 PBM fluorescence, median of replicate spots

B18: Table S3 C row 56 (dsDNA)
DNA 1: CGCTCAGAGCTACGGCGGAAATGCCGCTCTTTTAAC
DNA 2: GTTAAAAGAGCGGCATTTCCGCCGTAGCTCTGAGCG
binding signal: 786 PBM fluorescence, median of replicate spots

B19: Table S3 C row 17 (dsDNA)
DNA 1: CGCGGGTCATGTGACCGGAAGGGCTCCTCACGGACG
DNA 2: CGTCCGTGAGGAGCCCTTCCGGTCACATGACCCGCG
binding signal: 798 PBM fluorescence, median of replicate spots

B20: Table S3 C row 102 (dsDNA)
DNA 1: CCCCGCGTCCCAGACCGGAAGAAGCCCGGCGCAGAC
DNA 2: GTCTGCGCCGGGCTTCTTCCGGTCTGGGACGCGGGG
binding signal: 770 PBM fluorescence, median of replicate spots

B21: Table S3 C row 109 (dsDNA)
DNA 1: GCAGCACGCAGCAACCGGAAGTCAATGGACGAAGAC
DNA 2: GTCTTCGTCCATTGACTTCCGGTTGCTGCGTGCTGC
binding signal: 792 PBM fluorescence, median of replicate spots

B22: Table S3 C row 190 (dsDNA)
DNA 1: CGCTCGTAAGTGCTCCGGATGGAATCTGGTGCAGGG
DNA 2: CCCTGCACCAGATTCCATCCGGAGCACTTACGAGCG
binding signal: 780 PBM fluorescence, median of replicate spots

B23: Table S3 C row 92 (dsDNA)
DNA 1: TCCCTAGTTTCTGCCCGGAAGATGGAGCCGCCATCT
DNA 2: AGATGGCGGCTCCATCTTCCGGGCAGAAACTAGGGA
binding signal: 788 PBM fluorescence, median of replicate spots

B24: Table S3 C row 80 (dsDNA)
DNA 1: CAAAAGGGCTGCCAGTTTCCGCCCCTTCTAGCGAGC
DNA 2: GCTCGCTAGAAGGGGCGGAAACTGGCAGCCCTTTTG
binding signal: 794 PBM fluorescence, median of replicate spots

B25: Table S3 C row 155 (dsDNA)
DNA 1: TCCAGGCACTATTTTCGGAAGCAGAGACACAGTGCC
DNA 2: GGCACTGTGTCTCTGCTTCCGAAAATAGTGCCTGGA
binding signal: 791 PBM fluorescence, median of replicate spots

B26: Table S3 C row 86 (dsDNA)
DNA 1: CGCGTGATGGACGCCCGGAAGCCGGCACAACAAATG
DNA 2: CATTTGTTGTGCCGGCTTCCGGGCGTCCATCACGCG
binding signal: 777 PBM fluorescence, median of replicate spots

B27: Table S3 C row 95 (dsDNA)
DNA 1: CGCAGGGTCACGTGACATCCTGCCTCGCCCCGCCCA
DNA 2: TGGGCGGGGCGAGGCAGGATGTCACGTGACCCTGCG
binding signal: 783 PBM fluorescence, median of replicate spots

B28: Table S3 C row 99 (dsDNA)
DNA 1: CGCTCCAGGGCCTCCCGGATGGCCTAGTCGGGCCCG
DNA 2: CGGGCCCGACTAGGCCATCCGGGAGGCCCTGGAGCG
binding signal: 786 PBM fluorescence, median of replicate spots

B29: Table S3 C row 14 (dsDNA)
DNA 1: TCCTGCCGACGTGTTCTTCCGGTGGCGGAGCGGCGG
DNA 2: CCGCCGCTCCGCCACCGGAAGAACACGTCGGCAGGA
binding signal: 791 PBM fluorescence, median of replicate spots

B30: Table S3 C row 191 (dsDNA)
DNA 1: GATTGGTTCTCTAAGCTTCCGTCAGTTTACAATCCT
DNA 2: AGGATTGTAAACTGACGGAAGCTTAGAGAACCAATC
binding signal: 775 PBM fluorescence, median of replicate spots

B31: Table S3 C row 40 (dsDNA)
DNA 1: GCACCTGTATTGCCGTTTCCGGTTCGCCTTCGGAGC
DNA 2: GCTCCGAAGGCGAACCGGAAACGGCAATACAGGTGC
binding signal: 799 PBM fluorescence, median of replicate spots

B32: Table S3 C row 195 (dsDNA)
DNA 1: TCGCGCTGGACGAAGCGGAAGAAGATGGCGCTCACC
DNA 2: GGTGAGCGCCATCTTCTTCCGCTTCGTCCAGCGCGA
binding signal: 794 PBM fluorescence, median of replicate spots
